PMC11908248 (bioRxiv, 2025)
One block for each molecule: values may come before it.

B2: UNC-116-sfGFP-StrepII (natural protein, C. elegans, UniProt P34540 1-815, looked up)
chain: MEPRTDGAECGVQVFCRIRPLNKTEEKNADRFLPKFPSEDSISLGGKVYVFDKVFKPNTTQEQVYKGAAYHIVQDVLSGYNGTVFAYGQTSSGKTHTMEGVIGDNGLSGIIPRIVADIFNHIYSMDENLQFHIKVSYYEIYNEKIRDLLDPEKVNLSIHEDKNRVPYVKGATERFVGGPDEVLQAIEDGKSNRMVAVTNMNEHSSRSHSVFLITVKQEHQTTKKQLTGKLYLVDLAGSEKVSKTGAQGTVLEEAKNINKSLTALGIVISALAEGTKSHVPYRDSKLTRILQESLGGNSRTTVIICASPSHFNEAETKSTLLFGARAKTIKNVVQINEELTAEEWKRRYEKEKEKNTRLAALLQAAALELSRWRAGESVSEVEWVNLSDSAQMAVSEVSGGSTPLMERSIAPAPPMLTSTTGPITDEEKKKYEEERVKLYQQLDEKDDEIQKVSQELEKLRQQVLLQEEALGTMRENEELIREENNRFQKEAEDKQQEGKEMMTALEEIAVNLDVRQAECEKLKRELEVVQEDNQSLEDRMNQATSLLNAHLDECGPKIRHFKEGIYNVIREFNIADIASQNDQLPDHDLLNHVRIGVSKLFSEYSAAKESSTAAEHDAEAKLAADVARVESGQDAGRMKQLLVKDQAAKEIKPLTDRVNMELTTLKNLKKEFMRVLVARCQANQDTEGEDSLSGPAQKQRIQFLENNLDKLTKVHKQLVRDNADLRVELPKMEARLRGREDRIKILETALRDSKQRSQAERKKYQQEVERIKEAVRQRNMRRMNAPQIVKPIRPGQVYTSPSAGMSQGAPNGSNA

Experiments:
GST-KLC-2 (C. elegans) [1] = biological target: GST-KLC-2 (C. elegans) (UniProt P46822); assay: BLI
[2] = biological target: C. elegans kinesin-1 heterotetramer (UNC-116-sfGFP-StrepII + KLC-2-6xHis) (C. elegans) (UniProt P34540); assay: mass photometry
[3] = biological target: UNC-116-sfGFP-StrepII (C. elegans) (UniProt P34540); assay: mass photometry
GST-KLC-2 (C. elegans) [4] = biological target: GST-KLC-2 (C. elegans) (UniProt P46822); assay: mass photometry
mass photometry = biological target: the molecule itself; assay: mass photometry
UNC-116-sfGFP-StrepII = biological target: B2; assay: mass photometry

Sequence of GST-KLC-2 (C. elegans) (P46822 whole entry): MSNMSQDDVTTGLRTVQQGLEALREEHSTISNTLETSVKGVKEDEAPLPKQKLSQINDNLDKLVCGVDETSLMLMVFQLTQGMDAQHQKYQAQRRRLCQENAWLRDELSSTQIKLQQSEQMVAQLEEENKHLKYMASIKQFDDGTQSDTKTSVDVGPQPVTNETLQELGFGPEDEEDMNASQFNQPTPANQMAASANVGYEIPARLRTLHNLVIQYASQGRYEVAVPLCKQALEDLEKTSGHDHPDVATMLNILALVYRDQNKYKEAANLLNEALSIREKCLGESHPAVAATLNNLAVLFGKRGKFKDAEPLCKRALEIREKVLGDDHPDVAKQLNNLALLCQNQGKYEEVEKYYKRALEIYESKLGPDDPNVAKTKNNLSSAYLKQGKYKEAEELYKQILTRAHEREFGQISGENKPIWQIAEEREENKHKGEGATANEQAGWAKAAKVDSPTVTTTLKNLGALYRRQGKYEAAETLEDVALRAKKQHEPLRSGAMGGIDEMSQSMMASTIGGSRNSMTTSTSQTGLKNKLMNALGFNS

Kd (GST-KLC-2 (C. elegans) [1]): > 1 µM
percent of particles in the peak of the complex [2]: 97 % peak
stoichiometry N (UNC-83a monomer per kinesin-1 tetramer) [2]: 1
percent of particles in the peak of the complex [3]: 99 % peak
stoichiometry N (UNC-83a monomer per UNC-116 dimer) [3]: 1
Molecule: UNC-83a-mScarlet-StrepII (from UniProt Q23064 1-1041) (domain or fragment)

percent of particles in the peak of the complex (GST-KLC-2 (C. elegans) [4]): 97 % peak
stoichiometry N (UNC-83c monomer per KLC-2 monomer) (GST-KLC-2 (C. elegans) [4]): 1
Molecule: UNC-83c-mScarlet-StrepII (domain or fragment)

stoichiometry N (UNC-116-sfGFP-StrepII): 1 UNC-83a^N-term monomer per UNC-116 dimer
B1: UNC-83a^N-term-mScarlet-StrepII (domain or fragment, C. elegans, UniProt Q23064 1-305, looked up)
chain: MDVMDSFSEVEMPNDISSEDHLLKVIESSAEEVDIFLENCSSLYNLILDSLHNLTSKTISCECLDEMTSTLEKSAKKILAERPEAENSVLLRLNTICCAMDQLRVQHNSRMMSGADSDTASSARSSTSSSTGEMRLWLHEVERRLEINEKRIRVEPNLQLLLSDQQALQLEIQHEGQLLVNRLNKQIKDDHDSDSSEEEKRKTCVDAIRKRWHTIYLNSLSLVCRIEELINHQQASEDSESDPDLVGPPIKRARIRTVGHLTASDTEESEADEEDRHSQTETVVTEDDNVLPFAENEYESIMDGR
stoichiometry N (mass photometry): 2

Molecule: B2
stoichiometry N (mass photometry): 2
